From publication PMC11551748

The substances below were run against Exportin-1 (XPO1), endogenous (UniProt O14980) (assay: co-IP (GFP pulldown) and western blot, semi-quantification). Details: stable U2OS cell lines, parent: est. 0.60, read off a plot.
Chain of UniProt O14980 (O14980 whole entry): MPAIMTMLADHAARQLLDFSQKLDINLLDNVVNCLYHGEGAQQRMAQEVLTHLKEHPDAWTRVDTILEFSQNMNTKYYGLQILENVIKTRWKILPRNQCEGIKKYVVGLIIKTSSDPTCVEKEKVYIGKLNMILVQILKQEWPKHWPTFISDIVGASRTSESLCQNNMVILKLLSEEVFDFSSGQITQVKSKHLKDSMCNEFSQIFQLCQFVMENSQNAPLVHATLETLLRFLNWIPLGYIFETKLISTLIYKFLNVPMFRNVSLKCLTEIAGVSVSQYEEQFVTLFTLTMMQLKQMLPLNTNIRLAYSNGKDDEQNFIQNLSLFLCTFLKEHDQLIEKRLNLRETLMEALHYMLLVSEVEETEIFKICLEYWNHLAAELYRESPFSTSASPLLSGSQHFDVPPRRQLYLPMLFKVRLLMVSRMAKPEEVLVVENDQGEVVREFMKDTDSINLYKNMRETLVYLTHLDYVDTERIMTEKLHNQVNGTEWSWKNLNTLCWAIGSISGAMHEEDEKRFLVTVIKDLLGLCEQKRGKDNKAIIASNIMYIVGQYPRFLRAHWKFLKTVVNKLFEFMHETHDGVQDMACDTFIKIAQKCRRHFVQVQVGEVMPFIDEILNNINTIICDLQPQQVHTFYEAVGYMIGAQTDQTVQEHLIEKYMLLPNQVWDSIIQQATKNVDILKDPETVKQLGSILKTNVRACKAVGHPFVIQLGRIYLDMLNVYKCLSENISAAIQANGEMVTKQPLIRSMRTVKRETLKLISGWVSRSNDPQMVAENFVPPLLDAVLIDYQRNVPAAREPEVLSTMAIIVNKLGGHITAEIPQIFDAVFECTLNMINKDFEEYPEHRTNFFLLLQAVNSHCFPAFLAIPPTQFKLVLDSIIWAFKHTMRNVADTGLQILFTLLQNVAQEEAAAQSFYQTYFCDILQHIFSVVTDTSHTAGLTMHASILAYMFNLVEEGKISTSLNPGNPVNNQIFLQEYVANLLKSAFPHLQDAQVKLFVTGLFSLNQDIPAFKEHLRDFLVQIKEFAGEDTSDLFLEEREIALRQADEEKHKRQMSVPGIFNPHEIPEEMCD

| Substance | response (band intensity relative to WT -ETO) |
| --- | --- |
| TIRR-GFP WT (lentivirus-integrated, U2OS) (from UniProt Q9BRJ7) NES1 | 2.1 |
| TIRR-GFP WT (lentivirus-integrated, U2OS) (from UniProt Q9BRJ7) RBM | 0.9 |
| TIRR-GFP WT (lentivirus-integrated, U2OS) (from UniProt Q9BRJ7) NES3 | 3.2 |
| TIRR-GFP WT (lentivirus-integrated, U2OS) (from UniProt Q9BRJ7) NES4 | 1.3 |
| TIRR-GFP WT (lentivirus-integrated, U2OS) (from UniProt Q9BRJ7) K10E | 0.27 |
| TIRR-GFP WT (lentivirus-integrated, U2OS) (from UniProt Q9BRJ7) NES2 | 0.3 |
